Earlier results on one substance are cited in paper PMC6731456.

One may read the pKi as the Ki on a negative log10 scale, so that one unit is a factor of ten.

pKi: −log10 of the molar value.

In the data set the target is Apelin receptor (Homo sapiens) (UniProt P35414).
Sequence of UniProt P35414 (P35414 whole entry): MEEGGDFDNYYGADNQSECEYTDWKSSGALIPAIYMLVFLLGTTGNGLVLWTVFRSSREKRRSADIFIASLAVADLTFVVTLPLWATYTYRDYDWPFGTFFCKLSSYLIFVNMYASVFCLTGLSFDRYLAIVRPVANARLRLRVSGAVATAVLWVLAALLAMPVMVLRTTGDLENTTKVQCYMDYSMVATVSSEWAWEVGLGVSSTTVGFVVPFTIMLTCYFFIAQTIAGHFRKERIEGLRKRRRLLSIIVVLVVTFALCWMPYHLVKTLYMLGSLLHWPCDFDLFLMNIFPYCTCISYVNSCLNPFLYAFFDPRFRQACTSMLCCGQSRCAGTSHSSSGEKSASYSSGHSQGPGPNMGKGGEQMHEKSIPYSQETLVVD

With Protamine (from UniProt P69014), the pKi is 6.41.
